From US20100099203A1
pKd: −log10 of the molar value.

How the values were obtained:
Protein A [1] = target: Protein A (UniProt P38507); assay: Back scattering interferometry, free solution in PBS, 0.67 uM Protein A with IgG varied over 6 concentrations, 2 h at room temperature, PEG 200 passivated chip
Protein A [2] = target: Protein A (UniProt P38507); assay: Back scattering interferometry, free solution in PBS, 0.67 uM Protein A with IgG varied over 6 concentrations, 2 h at room temperature, PEG-5mer passivated chip

pKd (Protein A [1]) | pKd (Protein A [2]) | Substance
7.46 | – | IgG Fc segment
– | 8.10 | IgG (antibody)
